# PMC10984984, “Loss-of-function mutation in PRMT9 causes abnormal synapse development by dysregulation of RNA alternative splicing”
# B1: Stag2 downstream probe B (consensus anchoring site) (ssRNA)
# RNA: UAAUAGUCAUGCCUUGGUUCA
# B2: Stag2 upstream probe A (nonconsensus anchoring site) (ssRNA)
# RNA: CAUAGAAAAAAGUUAAGUUAA
# Molecular target: T1, SF3B2 peptide R508me0 (unmodified) (UniProt Q13435)
# T1 chain: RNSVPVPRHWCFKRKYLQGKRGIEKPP
# Assay: EMSA; R508me0; RNA 1 uM, peptide 1.4-140 uM; 20 mM Tris-HCl pH 8.0, 150 mM NaCl, 1.5 mM MgCl2, 0.5 mM EDTA, 100 U/mL RNasin, room temperature, 20 min; 6% native gel in 0.5x TBE
# Conditions: label: 5' 6-FAM
row,Binder,binding result
1,B1,binds
2,B2,binds
